Test results: patent publication US20130224246A1 (MACFARLANE BURNET INSTITUTE FOR MEDICAL RESEARCH AND PUBLIC …, published 2013)

Experiments:
[1] = molecular target: Δ123 E2661 M + C597A (HCV genotype 1a H77c, UniProt P27958 409-661); assay: EIA: E2 titrated on coated MBP-LEL113-201 (5 ug/ml), detected with anti-His
[2] = molecular target: WT E2661 M + C597A (C452A, C486A, C569A, C581A, C585A, C597A and C652A) (HCV genotype 1a H77c, UniProt P27958 384-661); assay: as above

B1: MBP-LEL113-201, maltose-binding protein linked to the CD81 large extracellular loop between residues 113 to 201 (receptor)
chain: FVNKDQIAKDVKQFYDQALQQAVVDDDANNAKAVVKTFHETLDCCGSSTLTALTTSVLKNNLCPSGSNIISNLFKEDCHQKIDDLFSGK
notes: range 113-201; also called CD81-LEL; CD81 LEL
binding result [1]: binds
binding result [2]: binds
